Assay results reported in patent US20150160214A1, “Quantitation of Cellular Adhesion Dynamics Across Immobilized Receptors Under Rheological Shear Flow” (Mayo Foundation for Medical Education and Research, priority 2013, published 2015).
Values joined by “and” are separate entries in the source; they are usually repeats but may differ in a detail not shown here. Equal values may be shown once.

Tests used:
[1] = Conformational and thermodynamic classification of A1 domain variants (urea and thermal denaturation, CD, FL, ANS); assay type: physicochemical
Description: Circular dichroism measurements were performed on a Model No. 420C circular-dichroism spectrometer (Aviv Biomedical, Inc., Lakewood Township, N.J.). All fluorescence (FL) measurements were performed on a Fluorolog3 spectrofluorometer (HORIBA Jobin-Yvon, Edison, N.J.) equipped with a Model No. LF1-3751 temperature controller (Wavelength Electronics Inc., Bozeman, Mont.). Near- and far-ultraviolet (UV) circular dichroism (CD), intrinsic protein FL, and ANS (8-anilino naphthalene sulfonic acid) […] spectra were determined as described in Tischer et al. (19). Urea denaturation (monitored by far-UV CD) and thermal denaturation (monitored by far-UV CD, intrinsic protein FL, and ANS FL) were performed and analyzed as previously described (19,20). Acrylamide quenching of intrinsic tryptophan fluorescence was performed and analyzed as described in Tischer et al. (19). All spectra were collected at 20° C.
The effects of mutations on the thermodynamic stability of A1 (18) was determined and a framework that incorporated partial unfolding as a means for enhancing the binding affinity of A1 for GPIba was developed (17). Initially, urea-temperature phase diagram method were used for assessing the reversible thermodynamics of unfolding at various temperatures (18,21), and more recently thermal denaturations were used to assess kinetic irreversibility (20,22). The inventor employed these methods using a variety of spectroscopic observables that assess the conformation of these A1 domain variants as a function of temperature and urea.
The observables included the following: (1) Far-UV CD to assess secondary structure content; (2) Near-UV CD to assess tertiary structure content; (3) Intrinsic protein FL to assess solvent exposure of tyrosine and tryptophan residues; (4) Acrylamide quenching of tryptophan FL to assess local solvent exposure of the single tryptophan residue; and (5) Binding of the molten globule indicator-dye, ANS, to assess exposure of hydrophobic surface area.
In total, these studies have provided metrics that are able to classify the conformation of A1 into three types, based on biophysical spectroscopy, as follows:
The type 2B mutations R1306Q and I1309V and the type 2M mutation G1324S have previously been characterized in this conformational class (18). In addition, R1308L and I1372S also belong to this class.
The type 2M mutation A1437T and the type 2B mutation R1341Q belong to this class.
The type 2M mutations F1369I, E1359K, I1425F, S1285F, and R1374H, and the type 2B mutations H1268D, P1337L, V1316M, and V1314D, belong to this class.

[2] = Temperature-induced unfolding by fluorescence and CD, irreversible models (Example 1); assay type: physicochemical
Description: A1-1261 and A1-1238 were thermally unfolded using intrinsic protein tyrosine and tryptophan fluorescence with an excitation λ=280 nm and emission λ=359 nm and CD monitored at λ=222 nm. […] As the scan rate increases, the midpoint of the transition (apparent TM) also increases.
Thermal transitions were analyzed in terms of the observed midpoint of the transition, apparent TM, and also by a two-state irreversible model or a three-state irreversible model as described in the Supplement and the calculated parameters are summarized in FIGS. 5A to 5D. […] If the protein unfolding was at equilibrium and reversible, this apparent TM would remain constant at all scan rates. Extrapolation of the TM to a scan rate of 0° Celsius/min provides an indication of where reversible unfolding would occur under equilibrium conditions; 50° Celsius for A1-1238 and 48° Celsius for A1-1261 from both CD and fluorescence data. For the second transition observed by fluorescence that occurs with A1-1238, the TM extrapolates to about 73° Celsius in the limit of zero scan rate. Analysis by the two-state and three-state irreversible models yields an R^2>0.99 for both fluorescence and CD and a transition temperature, T*, that is independent of the temperature scan rate. In addition, the enthalpies of the transitions are independent of scan rate within experimental error FIG. 5B. FIGS. 5C and 5D show the resulting average T* and ΔHT*^‡±the standard deviation obtained from the fitting of the primary thermal transitions in FIG. 4A to 4D for CD and fluorescence and a total average for both methods. […] However, the unfolding enthalpy was statistically larger for A1-1238 (250±15 kJ/mol) than for A1-1261 (204±10 kJ/mol). The average T* and ΔHT*^‡ observed in the second fluorescence transition of A1-1238 is 89.1±2.2° Celsius and 360±14 kJ/mol.
Prior to all spectroscopic thermal scans, protein samples were equilibrated at 10° Celsius for 15 min to obtain a stable baseline. CD thermal scans between 10 and 95° Celsius were recorded at λ=222 nm using a protein concentration of 1 or 2 μM in a 1 cm quartz cell under moderate stirring. Scan rates were 0.5, 1.0, 1.5 and 2.0° Celsius/min. Integration time for each data point was 20 s with a 1 nm bandwidth. Fluorescence thermal scans between 10 and 95 Celsius were recorded at an emission λ=359 nm after excitation λ=280 nm or λ=295 nm using 2 μM protein in a 1 cm quartz cell with moderate stirring. Scan rates were 0.4 or 0.6, 0.9, 1.6 and 2.0° Celsius/min. At each temperature, relative fluorescence intensity was collected for 4 s and averaged. Thermal scans in the presence of N-terminal peptide at 2.0° Celsius/min were preceded by 1 h incubations at 20° Celsius with 0.02-300 μM peptide.
For an irreversible two-state transition, unfolding is kinetically controlled by a first order rate constant that varies with temperature according to the Arrhenius equation (Atkins:1994). In our analysis the inventor refers to the intermediate state as the final irreversible state for all thermal transitions involving the unfolding of A1-1261 in the absence of peptide when monitored by fluoresence, CD and DSC and for A1-1238 when monitored by CD and DSC. The following equations derived below are equally valid for any two state irreversible transitions The activation energy in going from N->I is ΔG^‡=−RT ln k^‡ and the inventor expands ln k^‡ as a function of temperature in terms of Δβ=(β−β*)=(1/RT−1/RT*) using a Taylor series, where T̂* is the temperature at which ΔG^‡=0.

[3] = covalently linked N-terminal peptide

A1-1238: Recombinant human vWF A1 domain, amino acids Q1238-P1471, with N-terminal 6×His-Tag, disulfide intact
A1 domain Conformation [1]: N (N = “Native” (native structure with varying thermodynamic stability)) | Apparent TM extrapolated to a scan rate of 0° Celsius/min, primary transition ([2]; CD and fluorescence data): 50 ° Celsius and 49.8±1.2 ° Celsius | Transition temperature T*, primary unfolding transition ([2]; average of CD and fluorescence): 63.9±0.6 ° Celsius | Unfolding enthalpy ΔHT*‡, primary unfolding transition ([2]; average of CD and fluorescence): 59.8 ± 3.59 kcal/mol | Average T*, second fluorescence transition [2, 3]: 89.1±2.2 ° Celsius | Average ΔHT*‡, second fluorescence transition [2, 3]: 86 ± 3.35 kcal/mol | Apparent TM extrapolated to zero scan rate, second transition by fluorescence ([2]; fluorescence): about 73 ° Celsius
